From US20200384079A1, “Compositions of Fibroblast Growth Factor LIgands and Methods of Treating Patients Undergoing Ischemia-Reperfusion Therapy” (University of Cincinnati, priority 2017, published 2020)
“Also recorded” adds a separate entry of the source. Where two headings read alike, the source gives them in different places.

T1: FGFR3c ectodomain (Homo sapiens, UniProt P22607)
T1 sequence (P22607 23-375 limits assumed): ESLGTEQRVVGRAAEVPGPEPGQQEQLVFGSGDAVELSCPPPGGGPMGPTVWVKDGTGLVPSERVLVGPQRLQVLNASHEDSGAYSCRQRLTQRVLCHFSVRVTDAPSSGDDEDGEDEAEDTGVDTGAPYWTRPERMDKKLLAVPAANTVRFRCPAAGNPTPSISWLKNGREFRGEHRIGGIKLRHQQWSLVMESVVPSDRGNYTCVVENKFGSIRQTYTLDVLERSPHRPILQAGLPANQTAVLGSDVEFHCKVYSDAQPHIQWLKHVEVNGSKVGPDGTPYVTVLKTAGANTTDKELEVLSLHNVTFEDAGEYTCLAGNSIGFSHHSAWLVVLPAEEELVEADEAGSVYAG


Tests used:
[1] = tested on: FGFR1; assay: FGFR1 activation (phosphorylation) in left ventricle, immunoblot; design: species or system rat; details: in vivo, after 15 minutes of treatment
Protocol: One-half of each snap-frozen heart was powdered and homogenized in protein extraction buffer as previously described by our laboratory. For FGFR1, 150 μg of total protein were loaded onto a 8% SDS-PAGE gel, for ERK1/2 activation, 20 μg of whole cell protein homogenate was loaded onto a 15% SDS-PAGE gel, and for PKCα and PKCδ, […] of whole cell protein homogenate was loaded onto a 10% SDS-PAGE gel and then transferred to nitrocellulose membrane. 0.1% Ponceau S in 5% acetic acid was used to examine the transfer efficiency and loading equality as described previously 43. Membranes were blocked with 5% dry milk and then incubated with primary antibody against phospho-FGFR1 (Y-654, 1:500, Cell Signaling), phospho-ERK1/2 (1:1000, Cell Signaling) or phospho-PKCα (1:500, Santa Cruz) or phospho-PKCδ (1:500, Santa Cruz) followed by incubation with HRP-conjugated secondary goat anti-rabbit antibody (1:3000, Santa Cruz Biotechnology). […]
Construction of his-tagged native and heparin-binding modified rhFGFs as well as their expression and purification is performed as previously described using his-tagged expression vectors and nickel-nitrilotriacetic acid resin columns. […] His-tagged FGFs are detected in solid organs by ELISA (FIG. 14) both for FGF and histidine (data not shown), and immunoprecipitation (IP) followed by immunoblot and in plasma by ELISA as described previously. […]

[2] = biological target: T1, FGFR3c ectodomain; assay: ITC of FGF binding to FGFR3c ectodomain; details: for Kd: read-out: affinity for FGFR3c ectodomain
[3] = rat; for exogenous FGF1 level targeted to the heart: 10 μg/kg i.v.; for tissue and plasma FGF distribution (in words): i.v.
[4] = Blood clotting time (tail nick); format: in vivo, rat; details: for Clotting time: 15 mins post treatment, single agent; for blood clotting time post-treatment (in words): baseline vs 15 minutes after drug treatment; for effect on anticoagulant activity of heparin (in words): co-administered with unfractionated heparin
Protocol: In sets of experiments, blood clotting time was detected at baseline and 15 minutes after drug treatment. In brief, a nick 1-2 mm depth was made at 5 cm and 3 cm of the proximal tail for baseline and post-drug blood clotting time, respectively; the tail nick was blotted with 4×4 gauze every 15 seconds until bleeding totally stopped, and blood clotting time was recorded from the onset of bleeding until it stopped.
Heparan sulfate proteoglycans or heparin regulates the bioavailability of FGFs. In order to develop a “cardioprotective” FGF as a therapeutic against ischemic heart disease, it was necessary to elucidate the efficacy of these cardiac FGFs in the presence of heparin treatment. Therefore, native rhFGFs (FGF 1, 2, 4, or 5) or vehicle are infused intravenously (at dose indicated above) in conjunction with unfractionated (12 units/kg/hr, i.v.) or low molecular weight heparin (enoxaparin 1 mg·kg, s.c.) during the first 15 minutes of reperfusion (FIG. 12A), and post-ischemic recovery of cardiac function and the degree of myocardial infarction is assessed. […] Unfractionated or low molecular weight heparin is administered alone during early reperfusion to elucidate the cardioprotective effects of heparins against IR injury. Whether FGF administration alters heparin activity is evaluated. To assess this potential interaction, activated clotting time (ACT) is assessed in vehicle-treated or FGF-treated groups in the absence or presence of heparin co-administration. Baseline and 15 minute post-drug treatment ACT is determined. It has been established that a heparin response occurs within 1 minute after an intravenous dose in humans and that no more time is required to achieve a predicted ACT.

[5] = tested on: in vivo rat model of myocardial infarction
[6] = rat, FGF given at reperfusion with heparin
[7] = rat, given at reperfusion, no heparin co-therapy

Molecule | FGFR1 activation (phosphorylation, Y-654) in left ventricle (in words) [1] | Kd [2] [nM] | exogenous FGF1 level targeted to the heart ([3]; no heparin) [µg/mL] | tissue and plasma FGF distribution (in words) ([3]; FGF with heparin co-administration) | tissue and plasma FGF distribution (in words) ([3]; no FGF+heparin co-treatment) | Clotting time [4] | blood clotting time post-treatment (in words) [4] | effect on anticoagulant activity of heparin (in words) [4] | recovery of contractility (+dP/dt at 120 minutes post-reperfusion normalized to baseline) ([5]; rat, FGF1 10 μg/kg i.v. at reperfusion, no heparin) [%] | post-ischemic cardiac function (in words) [5, 6] | post-ischemic cardiac function (in words) [5, 7] | FGFR (receptor) binding affinity (in words) ([2]; FGFR3c ectodomain) | exogenous FGF1 level targeted to the heart ([3]; with heparin administration) [µg/mL] | heart rate compared to the saline group (in words) ([5]; rat I/R study)
FGF1: native recombinant human fibroblast growth factor 1 | elevated | 704 | 2282 ± 97 | significantly decreased in kidney, spleen, heart, liver and plasma | distributed to kidney, spleen, heart, liver, and plasma, while less went to lung and skeletal muscle | 15 mins post rhFGF1 treatment: 144 +/− 21 sec (n = 7) | no significant difference in blood clotting time | does not alter the desired anticoagulant activity of heparin; also recorded: did not alter heparin's anticoagulant properties | 69 | reduced the post-ischemic improvement of cardiac function | improved relaxation compared to saline treatment | – | – | –
FGF1^ΔHBS: FGF1 mutant carrying the K127D/K128Q/K133V triple mutation in its HS-binding region; reduced heparin-binding affinity (protein) MAEGEITTFTALTEKFNLPPGNYKKPKLLYCSNGGHFLRILPDGTVDGTRDRSDQHIQLQLSAESVGEVYIKSTETGQYLAMDTDGLLYGSQTPNEECLFLERLEENHYNTYISKKHAEKNWFVGLDQNGSCVRGPRTHYGQKAILFLPLPVSSD | elevated | 432 | 3073 ± 101 | – | mainly went to the heart including atria, left ventricle, and right ventricle; also recorded: greater biodistribution of FGF1^ΔHBS to the left ventricle compared to native FGF1 | 15 mins post rhFGF^ΔHBS treatment: 169 +/− 10 sec (n = 10) | no significant difference in blood clotting time | did not alter heparin's anticoagulant properties | – | improved post-ischemic cardiac function, even in the presence of heparin | significantly improved compared to the native FGF1 cohorts; also recorded: significantly improved post-ischemic cardiac function compared to native FGF1; also recorded: greater improvement in cardiac function compared to FGF1 | retains normal receptor binding affinity | 4336 ± 775 | no significant differences in heart rate
